Data reported in the supplement of paper PMC11316812.
± gives the standard deviation of the averaged measurements.

Assays:
hTERT-HMEC = experiment: percentage of EdU-negative (G0-arrested) nuclei per well, 72 h; higher = more G0 arrest; conditions: reference: sequence is the full UniProt precursor, the tested protein was the secreted form or ectodomain
MCF7 = experiment: as above; conditions: reference: sequence is the full UniProt precursor, the tested protein was the secreted form or ectodomain
[1] = protein concentration 0.02075 µM
[2] = protein concentration 0.2075 µM
[3] = protein concentration 0.0239275 µM
[4] = protein concentration 0.239275 µM
[5] = protein concentration 0.0245 µM
[6] = protein concentration 0.0225 µM
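Note: secreted proteins added to cultured cells, EdU pulse at the end, nuclei found by Hoechst imaging, EdU status from nuclear versus surrounding ring intensity ratio, PBS as neutral control.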

## MGTLPWLLAFFILGLQAWDTPTIVSRKEWGARPLACRALLTLPVAYIITDQLPGMQCQQQSVCSQMLRGLQSHSVYTIGWCDVAYNFLVGDDGRVYEGVGWNIQGLHTQGYNNISLGIAFFGNKIGSSPSPAALSAAEGLISYAIQKGHLSPRYIQPLLLKEETCLDPQHPVMPRKVCPNIIKRSAWEARETHCPKMNLPAKYVIIIHTAGTSCTVSTDCQTVVRNIQSFHMDTRNFCDIGYHFLVGQDGGVYEGVGWHIQGSHTYGFNDIALGIAFIGYFVEKPPNAAALEAAQDLIQCAVVEGYLTPNYLLMGHSDVVNILSPGQALYNIISTWPHFKH [Q96LB9]
hTERT-HMEC; [1]
  percentage of EdU-negative: 5.52 ± 0.69%
hTERT-HMEC; [2]
  percentage of EdU-negative: 5.51 ± 0.12%
MCF7; [1]
  percentage of EdU-negative: 25.5 ± 4.8%
MCF7; [2]
  percentage of EdU-negative: 26.6 ± 2.1%

## MGTLSAPPCTQRIKWKGLLLTASLLNFWNLPTTAQVTIEAEPTKVSEGKDVLLLVHNLPQNLTGYIWYKGQMRDLYHYITSYVVDGEIIIYGPAYSGRETAYSNASLLIQNVTREDAGSYTLHIIKGDDGTRGVTGRFTFTLHLETPKPSISSSNLNPRETMEAVSLTCDPETPDASYLWWMNGQSLPMTHSLKLSETNRTLFLLGVTKYTAGPYECEIRNPVSASRSDPVTLNLLPKLPKPYITINNLNPRENKDVLNFTCEPKSENYTYIWWLNGQSLPVSPRVKRPIENRILILPSVTRNETGPYQCEIRDRYGGIRSDPVTLNVLYGPDLPRIYPSFTYYRSGEVLYLSCSADSNPPAQYSWTINEKFQLPGQKLFIRHITTKHSGLYVCSVRNSATGKESSKSMTVEVSDWTVP
hTERT-HMEC; [3]
  percentage of EdU-negative: 5.16 ± 0.84%
hTERT-HMEC; [4]
  percentage of EdU-negative: 7.5 ± 0.26%
MCF7; [3]
  percentage of EdU-negative: 25 ± 2.2%
MCF7; [4]
  percentage of EdU-negative: 25.7 ± 1.8%

## MGTPRIQHLLILLVLGASLLTSGLELYCQKGLSMTVEADPANMFNWTTEEVETCDKGALCQETILIIKAGTETAILATKGCIPEGEEAITIVQHSSPPGLIVTSYSNYCEDSFCNDKDSLSQFWEFSETTASTVSTTLHCPTCVALGTCFSAPSLPCPNGTTRCYQGKLEITGGGIESSVEVKGCTAMIGCRLMSGILAVGPMFVREACPHQLLTQPRKTENGATCLPIPVWGLQLLLPLLLPSFIHFS [Q9BY14]
hTERT-HMEC; [5]
  percentage of EdU-negative: 5.14 ± 0.066%
hTERT-HMEC; protein concentration 0.245 µM
  percentage of EdU-negative: 5.33 ± 0.8%
MCF7; [5]
  percentage of EdU-negative: 25.5 ± 2%
MCF7; protein concentration 0.245 µM
  percentage of EdU-negative: 26.5 ± 0.59%

## MGTSLLCWMALCLLGADHADTGVSQNPRHKITKRGQNVTFRCDPISEHNRLYWYRQTLGQGPEFLTYFQNEAQLEKSRLLSDRFSAERPKGSFSTLEIQRTEQGDSAMYLCASSL
hTERT-HMEC; [6]
  percentage of EdU-negative: 5.02 ± 0.49%
hTERT-HMEC; protein concentration 0.225 µM
  percentage of EdU-negative: 6.26 ± 1.2%
MCF7; [6]
  percentage of EdU-negative: 27 ± 1.4%
MCF7; protein concentration 0.225 µM
  percentage of EdU-negative: 26.8 ± 1.4%

## MGTSPSSSTALASCSRIARRATATMIAGSLLLLGFLSTTTAQPEQKASNLIGTYRHVDRATGQVLTCDKCPAGTYVSEHCTNTSLRVCSSCPVGTFTRHENGIEKCHDCSQPCPWPMIEKLPCAALTDRECTCPPGMFQSNATCAPHTVCPVGWGVRKKGTETEDVRCKQCARGTFSDVPSSVMKCKAYTDCLSQNLVVIKPGTKETDNVCGTLPSFSSSTSPSPGTAIFPRPEHMETHEVPSSTYVPKGMNSTESNSSASVRPKVLSSIQEGTVPDNTSSARGKEDVNKTLPNLQVVNHQQGPHHRHILKLLPSMEATGGEKSSTPIKGPKRGHPRQNLHKHFDINEHLPWMIVLFLLLVLVVIVVCSIRKSSRTLKKGPRQDPSAIVEKAGLKKSMTPTQNREKWIYYCNGHGIDILKLVAAQVGSQWKDIYQFLCNASEREVAAFSNGYTADHERAYAALQHWTIRGPEASLAQLISALRQHRRNDVVEKIRGLMEDTTQLETDKLALPMSPSPLSPSPIPSPNAKLENSALLTVEPSPQDKNKGFFVDESEPLLRCDSTSSGSSALSRNGSFITKEKKDTVLRQVRLDPCDLQPIFDDMLHFLNPEELRVIEEIPQAEDKLDRLFEIIGVKSQEASQTLLDSVYSHLPDLL
hTERT-HMEC; [6]
  percentage of EdU-negative: 4.84 ± 0.51%
hTERT-HMEC; protein concentration 0.225 µM
  percentage of EdU-negative: 5.355 ± 0.035%
MCF7; [6]
  percentage of EdU-negative: 27.8 ± 0.67%
MCF7; protein concentration 0.225 µM
  percentage of EdU-negative: 25.7 ± 4.1%
